Test results from patent US20240424125A1 (Zymeworks, published 2024).

Tests used:
human FRα on cells [1] = molecular target: T1, human FRα on cells (human, UniProt P15328 25-234); assay: flow cytometry, HEK293-6e cells transiently expressing the target, 50 nM antibody
T1 construct: Transiently expressed on HEK293-6e, CHO-S or HEK293 microarray cells, or endogenous on JEG-3, HEC-1-A, IGROV-1, OVCAR-3, H2110, KB-HeLa and T-47D cells; also called human folate receptor alpha; FOLR1
Description: (§1) FRα, FOLR2 and FOLR4 binding: Briefly, HEK293-6e cells were transfected for ˜24 hours to transiently express human FRα (Cat. No. 13420), FOLR2 (Cat. No. 13481) and FOLR4 (Cat. No. 13483) (all from GenScript Biotech, Piscataway, NJ), 1 ug DNA per 1 million cells. Following transfection, 50,000 cells were seeded in V-bottom 96-well plates and incubated with 50 nM primary antibody for 45 min under standard culturing conditions. […] Following incubation and washing, fluorescence was detected by flow cytometry on a BD LSRFortessa™ Cell Analyzer (BD Biosciences, Franklin Lake, NJ) with 1,000 minimum events collected per well.
(§2) By flow cytometry, live singlet cell population was gated using FlowJo™ v8 software (RD Biosciences, Franklin Lake, NJ), and AF647 GeoMean and % positive binding was determined in this population for each antibody.

FOLR2 on HEK293-6e cells [2] = molecular target: T2, FOLR2 on HEK293-6e cells (human, UniProt P14207 17-230); assay: as above
T2 construct: whole, on cells; also called human folate receptor beta (FOLR2)
Description: as §1, §2

FOLR4 on HEK293-6e cells [3] = molecular target: T3, FOLR4 on HEK293-6e cells (human, UniProt A6ND01 20-228); assay: as above
T3 construct: whole, on cells; also called human folate receptor delta (FOLR4)
Description: as §1, §2

FOLR2 on HEK293-6e cells [4] = molecular target: T2, FOLR2 on HEK293-6e cells; assay: flow cytometry on transfected HEK293-6e cells
Description: (§3) FRα, FOLR2 and FOLR4 binding was assessed through flow cytometry using HEK293 transfected cells. FOLR3 binding was assessed through ELISA as FOLR3 is a soluble protein. Control anti-FOLR2 (mouse anti-human FOLR2; Nordic BioSite AB, Taby, Sweden; Cat. No. AFC-4544-2), anti-FOLR3 (mouse anti-human FOLR3; LS Bio, Seattle, WA; Cat. No. LS-C125621) and anti-FOLR4 (mouse anti-His DyLight™ 650; Novus Biologicals, Littleton, CO; Cat. No. NBP2-31055C) antibodies were included in these experiments.
as §1

FOLR4 on HEK293-6e cells [5] = molecular target: T3, FOLR4 on HEK293-6e cells; assay: flow cytometry on transfected HEK293-6e cells
Description: as §3, §1

human FRα on cells [6] = molecular target: T1, human FRα on cells; assay: apparent Kd, flow cytometry on HEC-1-A cells (endogenous FRα), 24 h at 4°C
Description: Briefly, cells were seeded at 50,000 cells/well in V-bottom 96-well plates and treated with antibody for 24 hours at 4° C. to prevent internalization. […] Following incubation and washing, fluorescence was detected by flow cytometry on a BD LSRFortessa™ Cell Analyzer (BD Biosciences, Franklin Lake, NJ) with 1,000 minimum events collected per well. AF647/APC-A GeoMean (fluorescence signal geometric mean, proportional to anti-Human AF647 binding) in live cell population was plotted using GraphPad Prism Version 9 (GraphPad Software, San Diego, CA).

[7] = molecular target: T4, cynomolgus monkey FRα on cells (cynomolgus monkey, UniProt P15328 29-234 (human entry)); assay: apparent Kd, flow cytometry, CHO-S cells transiently expressing cynomolgus monkey FRα, 24 h at 4°C
T4 construct: Transiently expressed on CHO-S cells; also called Cyno FRα; cynomolgus FRα
Description: (§4) Briefly, CHO-S cells were transfected for −24 hours to transiently express human or cynomolgus monkey FRα, 1 ug DNA per 1 million cells. Following transfection, cells were seeded at 50,000 cells/well in V-bottom 96-well plates and treated with antibody for 24 hours at 4° C. to prevent internalization. […] Following incubation and washing, fluorescence was detected by flow cytometry on a BD LSRFortessa™ Cell Analyzer (BD Biosciences, Franklin Lake, NJ).

human FRα on cells [8] = molecular target: T1, human FRα on cells; assay: apparent Kd, flow cytometry, CHO-S cells transiently expressing human FRα (same experiment as Table 15.1, more digits)
Description: as §4

[9] = molecular target: T5, recombinant His-tagged human FRα (ACROBiosystems) (human, UniProt P15328 25-233); assay: SPR (Biacore T200): hFRα amine-coupled to CM5 chip at medium antigen density, bivalent FSA injected, 1:1 Langmuir fit, mean of n=2
T5 construct: also called hFRα; hFRα antigen; not shown: His tag
Description: CM5 Series S sensor chip, Biacore™ amine coupling kit (NHS, EDC and 1 M ethanolamine), and 10 mM sodium acetate buffers were purchased from GE Healthcare Life Science (Mississauga, ON, Canada). PBS running buffer with 0.05% Tween20 (PBST) was purchased from Teknova Inc. (Hollister, CA). Recombinant human FRα was purchased from ACRObiosystems (Newark, DE).
Screening of the variants for binding to hFRα antigen was conducted in two steps: capture of hFRα onto surface, followed by injection of three to five concentrations of variant. The hFRα surface was prepared on a CM5 Series S sensor chip by standard amine coupling methods as described by the manufacturer (GE Healthcare Life Science, Mississauga, ON, Canada). The immobilization of the hFRα was performed using Biacore™ T200 immobilization wizard with an amine coupling method aiming for resonance units (RUs) ranging from 5 to 200 RUs. Using multi-cycle kinetics, three to five concentrations of a two-fold dilution series of samples starting at 300 nM with a blank buffer control were injected at 50 uL/min for 180s with a 600s dissociation phase, resulting in a set of sensorgrams with a buffer blank reference. The hFRα surface was regenerated to prepare for the next injection cycle by one pulse of 10 mM glycine/HCl pH 1.5 for 30s at 30 uL/min. Blank-subtracted sensorgrams were analyzed using Biacore™ T200 Evaluation Software v3.0. The blank-subtracted sensorgrams were then fit to the 1:1 Langmuir binding model.

T2 sequence (P14207 17-230): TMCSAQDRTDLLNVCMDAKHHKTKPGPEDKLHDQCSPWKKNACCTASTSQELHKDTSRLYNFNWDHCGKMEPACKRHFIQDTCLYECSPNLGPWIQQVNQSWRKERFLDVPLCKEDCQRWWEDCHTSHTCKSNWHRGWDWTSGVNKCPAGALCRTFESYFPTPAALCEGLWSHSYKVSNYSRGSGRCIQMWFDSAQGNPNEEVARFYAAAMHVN
T1 sequence (P15328 25-234 limits assumed): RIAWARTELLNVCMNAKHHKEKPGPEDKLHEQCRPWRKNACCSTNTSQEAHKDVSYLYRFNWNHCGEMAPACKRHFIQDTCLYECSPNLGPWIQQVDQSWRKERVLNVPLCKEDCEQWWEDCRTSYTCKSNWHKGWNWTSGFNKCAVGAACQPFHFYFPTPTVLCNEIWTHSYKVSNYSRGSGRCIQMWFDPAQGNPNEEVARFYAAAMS
T3 sequence (A6ND01 20-228): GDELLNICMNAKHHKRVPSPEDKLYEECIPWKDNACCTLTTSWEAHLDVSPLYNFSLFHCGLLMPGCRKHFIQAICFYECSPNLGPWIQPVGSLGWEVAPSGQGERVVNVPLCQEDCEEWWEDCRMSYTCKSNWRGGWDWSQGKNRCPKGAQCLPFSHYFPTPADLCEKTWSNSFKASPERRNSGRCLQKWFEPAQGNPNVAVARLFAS
T5 sequence (P15328 25-233 limits assumed): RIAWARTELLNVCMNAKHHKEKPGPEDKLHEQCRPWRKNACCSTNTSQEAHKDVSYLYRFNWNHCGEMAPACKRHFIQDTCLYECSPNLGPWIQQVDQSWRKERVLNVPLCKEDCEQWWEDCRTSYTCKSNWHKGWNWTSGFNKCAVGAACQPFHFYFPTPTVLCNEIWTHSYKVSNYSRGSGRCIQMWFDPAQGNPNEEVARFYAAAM
T4 sequence (P15328 other isoform, or with tags, fused parts or gaps limits assumed): as the sequence (P15328 25-234 limits assumed) above, with I2T, A3T, W4R, R37K, A146P, H171Y counted along it

B1: v23924 (antibody, human IgG1, kappa, V domains shown)
VH: QSVKESEGGLFKPTDTLTLTCTVSGFSLSSYGVSWVRQAPGNGLEWIGAVNSGGSAYYANWAKSRSTITRNTNLFTVTLKMTSLAVADTATYFCARSGSGYPMDYLAIWGPGTLVTVSS
VL: AYDMTQTPASVEVAVGGTVTIKCQASQSIGDWLAWYQQKPGQPPRLLIYEASTLASGVPSRFSGSGSGTQFTLTISGVECADAATYYCQQGYGRSNVDNIFGGGTEVVVKR
notes: Rabbit-human chimeric full-size antibody, human IgG1/kappa, HomoFc; also called variant v23924; parental chimeric anti-FRα antibody
- % Positive Binding, singlet population (human FRα on cells [1]): 71%
- AF647/DyLight650 GeoMean, singlet population (human FRα on cells [1]): 7660
- % Positive Binding, singlet population (FOLR2 on HEK293-6e cells [2]): 0%
- AF647/DyLight650 GeoMean, singlet population (FOLR2 on HEK293-6e cells [2]): 7
- % Positive Binding, singlet population (FOLR4 on HEK293-6e cells [3]): 0%
- AF647/DyLight650 GeoMean, singlet population (FOLR4 on HEK293-6e cells [3]): 27
- binding result (FOLR2 on HEK293-6e cells [4]): no binding (tested: 50 nM)
- binding result (FOLR4 on HEK293-6e cells [5]): no binding (tested: 50 nM)
- Kd (human FRα on cells [6]): 0.05 nM
- Kd [7]: 0.12 nM
- Kd (human FRα on cells [8]): 0.0839 nM
- Kd [9]: 1.37 nM
